# According to the DeepSol protein solubility set:
# Experiment: soluble on expression in E. coli; label from the status in PepcDB or PDB records
row,Sequence,soluble on expression in E. coli
1,MGSDKIHHHHHHMSPKVFVSHASEDKDRFVLQFAERLRQKGIDAWLDKWEMLPGDSLVDKIFEEGIKEAKAVIVVLSKFSVEKPWVREELNAAFVKRINNGSKLIPIVIDDCEVPEALKSTLWEPIADLSAYDKSFDRIVASIYGANDRPPIGPQPEYVQSFVQAIGNLNNIDSLVLRFSCEEVLKTGNAFVNPERVFLKDDKPILPEDELKDSLEILDGGGYIKLMRTLGGGFFPYQITTYGFDVYANASIPDYQGKIAAVVSAIVNEKLMSNAKIQERLKENKIIVDHILNVLENKGHIKQSKMIGGLSEIFNVSPSLKRALSGG,not soluble
2,MGSDKIHHHHHHMSPNNFDTDVCIVGGGPTGTLLAVLLGQKGHRVTILEKWPTFYERPRAVTFDHEIARILGYIGIDSENDEAIDYHSDSYDWKNAAGETLLEVDWTSMTDSGWRTRYWFYQPELEKRLRDLALTMDFVDIRCGFTAVGLSQDENSAIIHGIVTDTPENIPADAQREDIRAKYVIGADGANSFVRNSLGLEMNDLGYFFDWLILDLKPTQDIDYGTDHWQLCDPKRPTTIVPGGPGRRRWEFMALPGEDLKELASEESAWNLLEPWDVTPGKAILERSAVYRFQARWAQEWRSGRALIAGDAAHLMPPFAGEGMCAGLRDSLALAWRLDLVLSGKSDDALLDTYGEERREHVHYYIDFSMDLGNVICITDEDEARLRDERMIKELEAQDGVPVNTDVAHLGPGIWDKDSSHGGELAKQGIVEYQGRKARFDDAVGRGWAVLGLNTDPREVLDEDSLVALDAIGAIVESVGDATSAVLDVEGLYTRWLKEAGATFIITRPDFYVYSTAVDAEQLQTQIKQLSDLLHLNSVVGA,not soluble
3,MGSDKIHHHHHHMSPRPKQLSLELGSPPPSTFDNFVVASNREAVQRLHDLPSAVAQERAIDRLFYLWGENGCGRTHLLHAVCEATPQTGINCRYLSPHHPLSDFLFDPSCQLYTVDDVELLDEARQIAVFSLYNEVRAHVRTALVVAGGMAPRAMPVREDLRTRLGWGLVYQVQPLSDEDKMSAVLQAARERGLQLSPEITHWLVTRHYRDMPSLMALLDALDTYSLERKRPVTLPLLREMFAEFRE,not soluble
4,MGSDKIHHHHHHMSQDDHSRDSAGLTYVYPVVSRRAGGVSIGINLNPNNACNWRCIYCQVPDLKRGTAPVIDLVRLEQELRDFLHELVYGNFMQEKVPPETRVIKDIALSGNGEPTSAREFEQIIEIIGRVKADFPLPEELKLVLITNGSLINRMYVQKGLHLMAGLNGEVWFKLDSVTQTGRLRINNTRASLQRMRDNLQTAASLCPTWLQTCVFKLKGVHPDTHETDAYIGFIRTLLQEGTQIRGVLLYTLARPALQPEAPDLSKADPDWIKTFADKIRALGIPVRTAF,not soluble
5,MGSDKIHHHHHHMSQYSVTSSSVVKEKASELGFHKVGIAAVDSIDATEAQRLQAWIELGYHADMEWMANPKRQDIRLVMPEARSLVCVALNYYTPHQRPEGEEYAKISRYGWGRDYHKVMHKKLKQLSTWLESLDESVRVRYYADTGPVQDKVLAQLAGIGWIAKNGNVITREYGSWVFLGEVLTNLELESDRPHTEHCGSCTRCLQACPTSAITQPFIVDANRCIAYHTIENRDEKLPQTLTSHLQGWVAGCDICQDVCPWNQRFASTTDIPEFQPYPGNIAPKLLELAQISDQEWNKRFPASALRRIKPEMLRRNALANLDASRQIMTPKVIIFDFDGTIADTVDALVSIANRLAVDFGYRHISPEQLSLLKNLTSREIIKYSGVSLFKIPFLVKKVKGELKNKIPELKPIPGIKEALIELQNKGYKLGIITSNSKDNVTQFLTINDLNHLFDFIYSGITIFGKTTIINNVLRQNQLQPQEVIYVGDETRDIEASKKANIQVIAVAWGFNSSEVLAKQNPDYLIQQPSELLEVMNGY,not soluble
6,MGSDKIHHHHHHMSRAERLIELMITINAKRSFTAGELAEEFSVSKRTILRDLQVLESIGFPLYSKVGAAGGYHVLKERILPPIAFSESEVKSIFFAYQSLEYYNDLPFEQETISVLKKFLNCIPNDIQYNIENIRRKFVFWTPDRHCSTPLLKELFNIVMNEFTIKIEYSSKQKNSVRTIVPIGLYAMNGLWYCPAYCIKSESIKEFRVDRIVKILSIENLSSKKYKVLSSIHDYLKNMEVGTDYHIKINLTDEGVKRCETEFLLARGLKILSKGGYIDMYIPKSTLNWVAEYFLTFGKNATIIEPIELKHLIKSKVLELYNHHCI,not soluble
7,MGSDKIHHHHHHMSRSDARICAIHQPNFFPWLGYFDKIVRADIFVLLDDVQYQKTGGNWTNRVQMMIGQGPKWVTAPVDRSYSGVRQIREIRFSPVEREWREKLCSTITASYGRAAYFREVYPFIEPIIMNDSDFLSDYNSHAIAALCDYLEIESSKLVRSSQFNLQNNATDLLIDITKAVGAVRYLCGGGAQGYQEDEKFPRHGIQLIYQNFCHPIYTQANDAPFQPGLSIVDALMHCGRRGVIELLNRK,not soluble
8,MGSDKIHHHHHHMSRVGFTTSIPVEVILAAGKTPVDLNNVFINSLSPQSMVDLAEEEGYPRNCCGWIKGLYATSLNYDMEALIAVMHGDCSNTQALMETLQLRNKKIIPFAFPFDRERSQLEAQVDKLMQFFEVDMEEVLKARARLEKIRSLCRELDRMTWRDNLVTGQENHYYLLCSSDFNGNPAEFEAELHSFVEEAGKRRPIQEEVRLAYIGVPPIFTDLHQLLELMGARVVFNEVQRQFSMPVESSDIIEQYLHYTYPYGAFARLEDIEEQLAVRDVQGVIHYTQTFCFRQIEDLIFRERLKIPFLTLEGDRPGKVDARSRMRLESFVSMLKK,not soluble
9,MGSDKIHHHHHHMSSDPTSGAAITVEGLKKVFRIYERPRDRILQLILPGKRKFYREFQALDDVSFTVQKGQAVGIIGRNGSGKSTLLQMICGILHPTAGKVSCSGRVAALLELGAGFNPDFTGRENVYMNATLLGLTTAAVDERMDDILAFAEIGDFIDHPVKTYSSGMFVRLAFAVMAHVDAEILIIDEALAVGDAAFGQKCMRFLRRFRETGTILFVSHDTAAVIGLCDRAVWLDRGKMIIEGDAKTVCEAYYGHLFGGTVETPPEKTVEAITPSPAPEGPRPKVRAEDWVDGRREWINHSSLRNDIEVFTFDPSGTDFGAGGAEIEDVRLTDDDGHPYAWIVGGEPTRLRVTVRVRDELRSPIIGFFVKDRLGQTLFGDNTFMNEKKLSKPALPGQILEANFRFPMPILPPGTYSIAVAVADGTQTDHVQHHWLHDAVMVKSHVSHATAGLVGIPMFEVRFECHDPVASPSSSMDKVGIVD,not soluble
10,MGSDKIHHHHHHMSSEIVIRVKNLSKCFNIYDQPRDRLKQAILPRLQRLFGRPQKSYHKEFWALRNADFEIRRGETVGIIGRNGSGKSTLLQLLCGTLTPTHGDIEVTGKVAALLELGAGFNPEFTGRENVFLSGSFYGLTREQVQERFDRIAAFADIGDHIEQPVKTYSSGMFVRLAFAVIAHVDADILVIDEALSVGDAVFTQKCMRFIRSFQEKGTLLFVSHDMQSVVNLCRNAIWLNAGETRMKGTSKNVSEAYLKYTLQEVYGEEAILLSAAPKESTLDAPMFEEAGPPMLDYEAVASVSSNLFDAKGWKTGDAEIEAVQLESLTGENDGILRGGELVRMVVRARAHQPLERPVIGFMVRDRLGQNLFGENTLSLTALDQARVAAGQMFEGEFVFRLPMLPDGQYSVTASVADGDLHNNVQHHLLHDALIINVASSKVRWGLVGVPFERVTLNCI,not soluble
11,MGSDKIHHHHHHMSSIIENLQLAAQQVHLINLYQANSEVVYTGYIDRLAPDGVVVNTYDDAGLQDGAVFMRYDVIDEVEMMSEDLDNMAFRLENATTEGLNSVPQPTVALDDQRPVLTQLVTQAQTDHQVVLLVLEDNENYLEGQVQQVTDQTITFKTFDKFNFKNNGQQEIPLAAIQILEFCGNELLLESAFVKTIHTHRATIKVSEFDDVDHTLNNALNEHQLIAIRSADGSDMFFVGFINALNADSVLLNLIDMTGQFGGYTLCRRSLIESVTTQSDYLQTMRGFIELNRQYELNVQPVLNDERLFDATTDLFDSILRQAATFNNLVHITTENPMLPAMTGYPGTLTNGHFIFYNVDDDNQINHVGTMIELDQVVELSFGYMDAYLLEKRLKSTGNL,not soluble
12,MGSDKIHHHHHHMSSPSLGTEQVFPQQALLDPVLLRAFVAVADSGSFTRAAAATHLTQSTVSQQLKRLEQQLGCELLSRKGRYAMPTADGERLLGYARQILALMAEAGMTPAQPPLLRLAVAEDFAGTALMPILKKLITRFPSVKLEVQSGLSKPLYQAFQEGVVELALIKQRQGEHPAKACWPEALSWLAAADWQAVKAGEPVPLIAFPAGGLYRNEMAQLLDEAGIPWRLVYSSNSLEGVLCAVAAGMGVSLLPSRFIRAREHREITALPRATAMELALHLASSPGAELQWLADEIGAYCDRLSSGGSSVSCPNTSA,not soluble
13,MGSDKIHHHHHHMSTIGSDLYNSLGLTTSSKVAKKEDALGQADFLKLMTEQLQHQDPLKPMENSAFLGQLAQFSTVQGIGDLNTKVGNFSDSMNSDQVLKGAALVGHNVLVPSAQVAIDATGSAKGVVAATSAGFVNFEITDANGTFVKQLSVPASAAGEVSFAWDGTDANGNRMAAGKYGITATQTDTAGAKSKLATYVDAPVDSVTIGSDGLYLNLTGLGTSPLANVLRVS,not soluble
14,MGSDKIHHHHHHMSTNISWTDETINPIVGCSRISAGCQNCYASTAAASARLQQFPQYQKVKDWNGTVEFAESALLKPLSWKKPKRIFVCSMSDLFHENVPDQWRDRVFGIMAAAHWHIFQVLTKRPLNALKYFQNFNLAQRIKDAGNLVCKPELPLKNVWFGVTCENQEMADKRIPILLQIPAKVRFLSCEPLLEEIDLSEVFGLYEYEEGKFALKVGSRWESSPDWVIVGGESGKDARVCHIDWVRSLTRQCQAAEVPVFVKQLGSNCIESLPYIAGVPSTDYQFKTSDRKGGDISEFPEDLQVRKFPDIHKTR,not soluble
15,MGSDKIHHHHHHMSTNLDQLTDWLKEHKITEVECMVSDLTGITRGKISPTNKFIAEKGMRLPESVLLQTVTGDYVEDDIYYELLDPADIDMICRPDQNAVYLVPWAVEPTAQVIHDTYDKQGNPIELSPRNVLKKVLKLYADQGWQPIVAPEMEFYLTKRSDDPDYPLQPPIGRSGRPETGRQSFSIEAANEFDPLFEDVYDWCELQNLDLDTLIHEDGTAQMEINFRHGDALSLADQILVFKRTMREAALKHDVAATFMAKPMTGEPGSAMHLHQSIIDIETGKNIFSNEDGTMSELFLNHVGGLQKFIPELLPLFAPNVNSFRRFLPDTSAPVNVEWGEENRTVGLRVPDAVPQNRRVENRLPGADANPYLAIAASLLCGFIGMVEGINPSAPVVGRGYERRNLRLPLTIEDALERMENSKTIEKYLGKKFIIGYVAVKRAEHENFKRVISSWEREFLLFAV,not soluble
16,MGSDKIHHHHHHMSTPTRIITSKDIETGKHISPAQRLRIMNADEWEEFIEEWTDSLKKEYFKVERLGGAGDKGRDIVAQLENAEIWDNYQCKHYGHSLRPSDIWTEIGKLVYYTAIGDFTCPRKYFFIAPLGVGTSLSDLLKNPRKLVQGLRENWDKYCKDKITQNCLIKLSDMEPQLEKIDFSIFGYVTPLTIIEQHRKTPHFITRFGGGLPKREIPPEPPIKSTSEESEYLKKILQAYSDFNKQDISTIDDVTDIDLTEHYKDSRIQFYSAEALKRFSRDALPENEFKLLQQEFLNGIKDEIRNPVHANGYLRLLEVVKVARALQITSHALIDCLMVNDRGGICHQLANDNESIAWAKNG,not soluble
17,MGSDKIHHHHHHMSVETLPIILKELRLVSLLPHWQPLAEKAREQHWPVERYLAELCQLELSCREQKRLHRGLKEATLPIGKYLDTYDFSEVEGLSKKQVWHLADNAEWLKTGDNILLFGASGLGKTHIAAGLGYRLVEQGHRVKFMSASLLVQHLQKAKEELRLPEALVKLDRFAVLILDDLGYVQKSTEETSVLFELIAHRYERYSLIITSNQSFEDWDKLFSDTVMTVAAIDRLIHHAKILQCKGESYRRKEAQNKLN,not soluble
